Measured values from article PMC3902949.

Biological target: Saccharomyces cerevisiae Rad51 protein (S. cerevisiae) (UniProt P25454)
Test: SEC; 10 µM Rad51 and 20 µM Rad52 fragment incubated at room temperature for 1 h, or each protein alone; Superdex 200 10/300 GL in 20 mM Hepes-KOH pH 7.5, 0.1 M KCl, 0.5 mM EDTA, 10% glycerol, 2 mM 2-mercaptoethanol; peak fractions analysed by SDS-PAGE

Sequence of UniProt P25454 (P25454 whole entry, the tested form may be a part): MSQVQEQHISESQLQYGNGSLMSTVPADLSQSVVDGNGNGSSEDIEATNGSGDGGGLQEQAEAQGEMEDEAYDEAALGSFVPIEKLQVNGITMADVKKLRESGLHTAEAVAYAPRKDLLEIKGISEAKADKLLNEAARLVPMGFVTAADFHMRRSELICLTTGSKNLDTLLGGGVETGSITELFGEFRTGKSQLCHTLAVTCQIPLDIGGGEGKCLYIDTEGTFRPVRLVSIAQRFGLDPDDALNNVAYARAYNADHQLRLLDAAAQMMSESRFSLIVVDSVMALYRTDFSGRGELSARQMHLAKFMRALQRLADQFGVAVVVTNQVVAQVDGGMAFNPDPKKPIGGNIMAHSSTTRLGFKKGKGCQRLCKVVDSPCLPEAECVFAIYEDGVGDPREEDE

stoichiometry N: 1
Substance: Rad52^233–504 (C-terminal half of the Saccharomyces cerevisiae Rad52 protein) (domain or fragment)
